B1: telomeric dsDNA (two TTAGGG sites) (dsDNA)
DNA 1: GTTAGGGTTAGGGTTAG
DNA 2: CTAACCCTAACCCTAAC

Key:
TRF1 [1] = target: T1, TRF1 (human, UniProt P54274); experiment: single-molecule magnetic tweezers; conditions: delta-delta G of fork opening with vs without 10 nM TRF1 (61 vs 50 kBT); 20 mM HEPES pH 7.5, 100 mM NaCl, 1 mM EDTA, 0.0063% Tween-20; EMSA 30 min on ice, 5% PAGE in 1x TBE at 4 C; magnetic tweezers at 23 C
TRF1 [2] = target: T1, TRF1; experiment: EMSA; dimer concentration; Hill fit; 10 nM DNA, n=3; 20 mM HEPES pH 7.5, 100 mM NaCl, 1 mM EDTA, 0.0063% Tween-20; EMSA 30 min on ice, 5% PAGE in 1x TBE at 4 C; magnetic tweezers at 23 C; conditions: protein: recombinant; tags: trx tag (modified pET32a, Ni-NTA) removed with 3C protease; chain copies: 2; label: FAM on strand 2 (printed as FAM-CTAACCC..., 5'); blunt

T1 sequence (P54274 3-439): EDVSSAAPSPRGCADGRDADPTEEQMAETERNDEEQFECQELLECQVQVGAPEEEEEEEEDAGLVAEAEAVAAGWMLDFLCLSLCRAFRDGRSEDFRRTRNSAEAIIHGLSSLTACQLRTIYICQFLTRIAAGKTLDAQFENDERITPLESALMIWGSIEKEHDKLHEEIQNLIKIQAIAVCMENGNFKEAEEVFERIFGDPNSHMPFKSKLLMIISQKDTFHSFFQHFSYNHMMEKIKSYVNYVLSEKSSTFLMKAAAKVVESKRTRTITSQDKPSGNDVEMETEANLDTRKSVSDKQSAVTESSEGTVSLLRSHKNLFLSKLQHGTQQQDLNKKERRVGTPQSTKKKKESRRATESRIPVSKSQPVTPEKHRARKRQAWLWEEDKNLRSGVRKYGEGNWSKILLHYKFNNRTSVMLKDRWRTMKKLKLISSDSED

Molecule | binding signal (TRF1 [1]) | Kd (TRF1 [2])
short telomeric hairpin (13 TTAGGG repeats) | 11 kBT | 
B1 |  | 0.0175 ± 0.0007 µM

— publication PMC7826288, “Dynamics of TRF1 organizing a single human telomere” (Nucleic Acids Research, 2020)
